Assay results published in the supplement of paper PMC11908140.

B1: library; numbered along this chain (parent)
chain: MRKPRAAVGSGHRKQAASQEGRQKHAKNNSQAKPSACDGLARQPEEVVLQASVSSYHLFRDVAEVTAFRGSLLSWYDQEKRDLPWRRRAEDEMDLDRRAYAVWVSEVMLQQTQVATVINYYTGWMQKWPTLQDLASASLEEVNQLWAGLGYYSRGRRLQEGARKVVEELGGHMPRTAETLQQLLPGVGRYTAGAIASIAFGQATGVVDGNVARVLCRVRAIGADPSSTLVSQQLWGLAQQLVDPARPGDFNQAAMELGATVCTPQRPLCSQCPVESLCRARQRVEQEQLLASGSLSGSPDVEECAPNTGQCHLCLPPSEPWDQTLGVVNFPRKASRKPPREESSATCVLEQPGALGAQILLVQRPNSGLLAGLWEFPSVTWEPSEQLQRKALLQELQRWAGPLPATHLRHLGEVVHTFSHIKLTYQVYGLALEGQTPVTTVPPGARWLTQEEFHTAAVSTAMKKVFRVYQGQQPGTCMGSKRSQVSSPCSRKKPRMGQQVLDNFFRSHISTDAHSLNSAAQ

Variants of: B1
Test: 8OG:A repair function score (normalized; synonymous = 0, nonsense = -1) (normalized log-likelihood score); higher = more repair activity (WT-like)
Details: with 8OG:A DNA repair reporter (GFP) in HEK-293 MUTYH KO cells
Summary of the method: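 GFP+ (repair) and GFP− bins of viable mCherry+ cells were collected at 72 h from MUTYH knockout HEK-293 cells bearing lentiviral MUTYH cDNA NNN codon-scan libraries in 10 pg/ml doxycycline, co-transfected with an 8OG:A GFP repair reporter and mCherry. Tile amplicons were sequenced, and per-tile Rosace fitness scores were normalized to a repair function score anchored on synonymous and nonsense distributions. Synonymous medians were set to 0 and nonsense to -1, with variants under 300 counts per million at the start removed.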
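Note: cells sorted at 72 h after reporter transfection.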

Variant | 8OG:A repair function score
F59Q | -0.967
A291T | -0.0451
P365E | 0.196
R340M | -0.107
R340G | -0.129
W447I | -0.784
D502M | -0.0464
D502W | -0.0396
D502E | -0.0204
A254Y | -0.534
L349E | -0.993
W321G | -0.258
G412C | -0.809
C269H | -0.96
C269T | -1.06
E385A | 0.0147
T122E | -0.0848
T122S | -0.0596
S515H | -0.0115
G258Y | -1.23
W124F | 0.00143
Q239Y | -0.309
Q239M | -0.146
T346I | 0.0144

Variant | 8OG:A repair function score
T346G | -0.335
T346P | -0.585
K464Q | -0.245
K464M | -0.266
L234R | -1.01
L234T | -0.464
R283V | -0.0935
L393H | 0.25
L355Y | 0.0403
W235P | -1
M173Y | -0.366
T380Q | 0.429
T380V | -0.0828
T406A | 0.32
G222H | -0.56
L516H | 0.0157
F418M | 0.07
L370P | -0.657
L370G | -0.609
W103R | -1.22
W103M | -0.283
W103H | -0.97
A445H | -0.71
L403E | -0.596

Variant | 8OG:A repair function score
R97D | 0.00527
R97Y | -0.0378
P244L | -0.398
A431E | 0.346
A431G | -0.211
A431Q | -0.242
V230M | -0.387
Q271A | 0.0211
Q271Y | -0.0212
T308K | -0.0882
T116V | -0.0225
R336Y | -0.18
A6K | -0.0201
A6R | -0.0747
A6H | -0.0145
E141T | -0.0124
A245V | 0.000414
T436I | -0.0834
Q113C | -0.133
M462T | 0.0162
G372S | -0.15
E303P | -0.218
S480H | 0.0192
S480F | -0.0271

Variant | 8OG:A repair function score
H514Y | -0.00319
H514G | 0.0114
V379Q | -0.792
T204H | -0.234
T204R | -0.0298
K80I | -0.35
L313M | 0.00327
G475Y | -0.00721
R69W | -3.43
A520C | -0.000175
V362W | -0.624
V362P | -0.881
L423C | 0.0721
W85Y | -0.864
E92D | -0.0315
E90K | 0.00313
Q394L | -0.0272
Y425C | -0.509
Q232E | 0.105
Q435N | -0.138
W128M | -0.374
W128F | -0.156
A456F | -0.61
A456W | -0.531

Variant | 8OG:A repair function score
Q521Y | 0.025
E433K | -0.0112
E433M | -0.0329
P437G | 0.136
C311M | -0.621
P474C | -0.00224
P474S | -0.00281
V114L | -0.441
S55I | -0.0166
P442Q | 0.213
Y56W | 0.00662
M255S | -1.01
L169A | -0.177
L169Q | -0.00403
A63R | 0.00494
G293L | -0.0631
G293V | -0.0545
K390Q | 0.474
T449Y | 0.0178
E45I | -0.0125
E45A | -0.024
L134S | -0.514
T511P | -0.0422
C304E | -0.556

Variant | 8OG:A repair function score
P404A | -0.142
P404T | -0.55
V117G | -0.408
V301Q | -0.242
D249S | -0.402
D249R | -0.663
A259C | -0.242
Y469P | -0.718
V438I | -0.407
A519H | -0.00545
A519N | -0.00616
N503S | -0.019
L183E | -0.0475
Q202G | -0.395
S518H | -0.0153
V485K | -0.00358
Q484A | 0.00718
G429S | -0.131
Q388N | 0.244
Q110V | 0.0461
H508D | -0.000798
H508Y | 0.0034
D82G | -0.0955
D82C | -0.0489

Variant | 8OG:A repair function score
S105P | -0.822
S105L | -0.798
S105N | -0.802
L277Q | -0.0714
R506Q | -0.052
R506V | -0.0196
R506G | -0.0057
I359K | -0.27
I359L | 0.0476
A115R | 0.092
P273N | -0.903
A334G | -0.0343
A334I | -0.198
A334S | 0.0289
G123N | -0.0109
M496V | -0.0328
M496W | -0.045
L95N | -8.88e-05
F200D | -0.891
G479V | 0.00419
A137H | -0.568
T179R | 0.0462
R279G | -0.388
S490M | -0.0481

Variant | 8OG:A repair function score
P174V | -0.797
W381K | -0.184
L49Q | -0.00358
L49K | -0.236
V104I | -0.19
P320M | -0.0571
P320H | 0.0683
E64P | -0.284
L369N | 0.0162
G353N | -0.00787
K463L | -0.0958
E106R | -1.42
L315F | -0.147
L315N | -0.209
L315I | -0.0865
G309V | -0.0173
S419N | -0.269
C347I | -0.0428
C314Y | -0.572
V107S | -0.135
Q450T | 0.0482
A513F | -0.00203
R491K | 0.0262
L109P | -1

Variant | 8OG:A repair function score
L109F | -0.916
Q252F | -1.02
Q252D | -1.01
R213I | -0.997
L73F | -0.261
S227H | -0.197
S136R | 0.0299
S136E | 0.0125
S136L | -0.0288
G188H | -0.662
R246F | -0.68
R246A | -0.605
R482F | 0.0283
V206I | -0.0438
A305C | -0.0298
W374P | -1.01
W374K | -0.692
Q288T | 0.00195
E275T | 0.0286
L131R | -0.798
T460G | -0.0856
S294T | 0.00194
S294M | -0.0115
R409P | -0.541

Variant | 8OG:A repair function score
D133L | -0.0567
D133K | -0.175
D133W | -0.988
G148N | -0.669
R219G | -0.758
P338V | -0.0391
Q43D | 0.0131
Q43K | 0.0479
F453H | -0.758
G368F | -0.769
R217E | -1.03
Y120P | -0.134
H312C | -0.0404
V441G | -0.221
A203S | -0.0724
L430C | -0.0232
L149P | -0.979
L149A | -0.323
E342Y | -0.0601
G297I | -0.0605
L411I | 0.148
L411D | -0.751
F505Q | 0.0246
L145P | -1.26

Variant | 8OG:A repair function score
E302K | -0.367
P494H | 0.015
G471T | -0.0359
S270W | -0.0132
V328S | -0.00939
N251R | -1.02
L295H | -0.0248
L295V | 0.0106
E287C | -0.037
E287V | -0.04
R332Q | -0.0904
L215S | -0.957
S138R | 0.0347
A391S | -0.175
A391C | -0.0464
I195T | -0.534
Q144S | 0.0476
Q144Y | -0.286
Q498M | -0.0277
R281E | -0.484
R281C | -0.173
A253G | -0.438
V427R | -1.04
V427E | -1.24

Variant | 8OG:A repair function score
G401Q | -0.521
T176W | -0.419
T176S | -0.0317
T176Q | -0.0945
T176V | -0.285
K337W | -0.0779
Q363A | -0.167
N143T | -0.286
K422P | -1.09
K422N | -0.21
M93K | 0.00623
H420T | -0.525
V465P | -1.18
V465K | -1.19
Y428I | -1.03
Y428D | -1.09
T112V | -0.914
Y151H | -0.509
L361P | -1.01
T263M | -0.0448
R88E | -0.00364
R156Q | -0.136
T417R | 0.199
Y76L | -1.17

Variant | 8OG:A repair function score
Y76W | -0.136
N329Q | -0.0134
N329L | -0.301
N329C | -0.102
R398W | -0.973
L360W | -1.54
L360I | -0.403
A220F | -0.676
A357P | 0.04
C216P | -0.98
W146S | -0.39
W146K | -0.739
E319A | -0.00684
A147G | -0.174
E178M | 0.0407
E79L | -0.0186
L432S | -0.284
T440M | -0.109
G434R | -0.0648
G434Y | 0.0378
A199S | -0.171
A199V | -0.155
A199Y | -1.05
L396K | -1.03

Variant | 8OG:A repair function score
N119S | -0.294
L408D | -0.946
R60A | -0.0135
A212L | -0.264
E341D | -0.0128
G171E | -0.526
L40W | 0.123
R42K | 0.0776
S231R | 0.201
Q50S | 0.0939
Q50M | -0.0659
Q50F | -0.0563
A238F | -0.858
L392A | -0.807
L392K | -1.03
E168I | -0.134
N517T | -0.0674
A99G | -0.0185
Y190A | -0.38
F504I | 0.00771
E382P | 0.149
P402N | -0.282
